Source: the supplement of paper PMC12042874
± gives the uncertainty stated by the source.

Assay: amyloid nucleation score (Sup35N fusion, yeast selection) (log enrichment); library NNK1; higher = more nucleation; inactive = no reads after selection
Procedure, shortened: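 The nucleation score, computed with DiMSum, is the log enrichment of output over input reads, centred on the mode score of non-aggregating sequences. Sequences with under 100 input reads were dropped. Reads were generated by Illumina sequencing of plasmid inserts from psi-negative yeast with Sup35N fused to peptides of 20 random codons, induced with 100 μM copper sulfate for 24 hours and grown 7 days at 30°C on medium lacking adenine and uracil.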

PQRRGHIRIDRILSSTWTVA and PRYMTLGVVWSMSGWSESVQ are within error of each other in amyloid nucleation score: 0.197 ± 0.39 for the first, 1.04 ± 0.52 for the second.

First: PSFNLNFVRINLQDGNMRLS
Second: PSYHGYLGLSNPVRYRMCV
The amyloid nucleation score of the first is higher: 7.038 ± 0.048 for the first, 0.197 ± 0.28 for the second.

PTETVMMRRIFGSRGPWYAV and PTRDCRVNKGSLMWTP are within error of each other in amyloid nucleation score: 0.286 ± 1.4 for the first, -0.213 ± 0.59 for the second.

First: PTRPMTTELRRKVRRPALDG
Second: PTSLLLGINYCLFWSIYLRD
The amyloid nucleation score of the first is lower: -0.139 ± 0.62 for the first, 1.81 ± 0.16 for the second.

PTSSGNATAWRNLNLLLCEL and PVARTPHWVLAVRWHALIWG are within error of each other in amyloid nucleation score: 0.328 ± 0.97 for the first, 1.4 ± 0.29 for the second.

Compared with PVGYYILGMNGRVMNWSQRQ, PVKGGVMGF is lower in amyloid nucleation score: 1.73 ± 0.52 for the first, -0.35 ± 1.4 for the second.

PVLSTYFHAKLQNTWMPGNR and PWKWF are within error of each other in amyloid nucleation score: -0.941 ± 0.77 for the first, -0.224 ± 0.43 for the second.

PWSALTASGTKISSSKSRLG and PYAAGENWWMCLQRVPVTIV are within error of each other in amyloid nucleation score: -0.331 ± 0.93 for the first, 0.027 ± 0.67 for the second.

PYCFYPRCC and PYFLGGRA are within error of each other in amyloid nucleation score: 0.015 ± 0.85 for the first, -0.809 ± 2.1 for the second.

PYKTWRYSSRIFYWAALPMV and PYMVSGSWPKFRT are within error of each other in amyloid nucleation score: -0.842 ± 1.7 for the first, 0.041 ± 0.58 for the second.

PYSWVEKASY and PYWVYEHSTC are within error of each other in amyloid nucleation score: -0.322 ± 0.78 for the first, -0.726 ± 0.63 for the second.

QAKGLALLCV and QCANAVNHRTLGLMLFKMVL are within error of each other in amyloid nucleation score: -2.17 ± 2.7 for the first, 0.19 ± 0.5 for the second.

First: QCKRFCCIWVCNADFVAGAW
Second: QCMARVSQFFWFMLTWK
The amyloid nucleation score of the first is higher: 7.745 ± 0.045 for the first, 0.748 ± 0.27 for the second.

First: QCMSMSYPFMPRTHQRTVLK
Second: QCVGPSVCVFVHRLVGCYRA
The amyloid nucleation score of the first is lower: -0.179 ± 0.31 for the first, 3.34 ± 0.098 for the second.

Compared with QDTRTLQGCRQWQRWITAEG, QFFLNTRLSLFALYL is higher in amyloid nucleation score: 0.678 ± 0.84 for the first, 5.35 ± 0.059 for the second.

Compared with QFSCFMMFIIYE, QFTRLCMLRNTLFTVVENQA is lower in amyloid nucleation score: 4.16 ± 0.064 for the first, 0.383 ± 0.65 for the second.

First: QFVMINYSSSNVASPNLLRI
Second: QFVQAGRKLGNNVDGWKYVC
The amyloid nucleation score of the first is higher: 0.94 ± 0.3 for the first, -0.997 ± 0.5 for the second.

QGAGILTYPRALRHWVVRRM and QGCMATYSGVGDACWGVRVS are within error of each other in amyloid nucleation score: 0.12 ± 0.51 for the first, 0.678 ± 0.56 for the second.

Compared with QGFRVWKLNTIKRHSWMGFA, QGPVGVSYILHDFIIML is higher in amyloid nucleation score: 0.772 ± 0.44 for the first, 5.94 ± 0.093 for the second.

QGSDASVGTAVGSTWEVCCC and QHCARTAGVSVARVVVSNCG are within error of each other in amyloid nucleation score: -0.334 ± 0.36 for the first, 0.161 ± 0.41 for the second.

QHTFQAMISKSNVSEMSPGT and QHVFWIYPLPTLSSYGTARS are within error of each other in amyloid nucleation score: -0.174 ± 0.59 for the first, -0.227 ± 1.9 for the second.

QISSTRIDW and QKMYDILVIDLYESGDRPFV are within error of each other in amyloid nucleation score: -0.074 ± 0.32 for the first, 0.532 ± 0.29 for the second.

QKSLSVEPDAH and QLLSRLGIS are within error of each other in amyloid nucleation score: -0.557 ± 0.37 for the first, -0.641 ± 1.4 for the second.

QLPAFGINMSRLSNSCSYGC and QLTSACWYAVTGGGSTAGEG are within error of each other in amyloid nucleation score: 0.095 ± 0.59 for the first, -0.965 ± 1.4 for the second.

QLVKSVY and QMGIMFALILQMYFSKFQDW are within error of each other in amyloid nucleation score: -0.166 ± 0.35 for the first, -0.182 ± 0.21 for the second.

QNIGGFMARFIIFILLYDHW and QNIYFFKCAKHSKVNRSDMS are within error of each other in amyloid nucleation score: 0.714 ± 0.84 for the first, 1.91 ± 0.55 for the second.

QPFTWVLQKNTRT and QPSKCGAWGPLFIAGVGLTQ are within error of each other in amyloid nucleation score: 0.714 ± 0.58 for the first, 0.231 ± 0.33 for the second.

QRFQAGPCRFSE and QRFRTLCNLVFYLGSKVRET are within error of each other in amyloid nucleation score: -0.394 ± 0.95 for the first, 0.317 ± 0.3 for the second.

QRHSLNDNCRCLRYPQHSPN and QRIVTG are within error of each other in amyloid nucleation score: 1.07 ± 0.73 for the first, -0.123 ± 0.59 for the second.

QRRYRDTAGLNRNIRNICSK and QSAAFIIDLLTVFRKMEEVM are within error of each other in amyloid nucleation score: -0.257 ± 0.72 for the first, -0.666 ± 0.66 for the second.

QSETDQIFEVFFSDWHSCTK and QTCAYGLRNTTSTVCLYRWG are within error of each other in amyloid nucleation score: 0.777 ± 0.97 for the first, 0.294 ± 0.53 for the second.

First: QTFSNPFFVLYLSNRLIPKV
Second: QTNKLEGVANSGKIITNKSG
The amyloid nucleation score of the first is higher: 1.82 ± 0.29 for the first, 0.021 ± 0.97 for the second.

Compared with QTSIWFGDYYRKLSLCWHRP, QTTTLYRFCCEWQSPASVVM is lower in amyloid nucleation score: 3.63 ± 0.097 for the first, 0.333 ± 0.97 for the second.

QVFKHGSPGHMLALCQRAV and QVRGSASYSVHWINELFFKQ are within error of each other in amyloid nucleation score: 1.39 ± 0.63 for the first, 1.64 ± 0.32 for the second.

First: QVSANSKNKSVVLFQIKSNE
Second: QVTRYYGGNAVR
The amyloid nucleation score of the first is lower: -0.17 ± 0.4 for the first, 1.59 ± 0.57 for the second.

Going from QVYLILTEMRMTF to QWGRMPMFLIDRTGGWASMG, the amyloid nucleation score falls from 1.4 ± 0.13 to 0.409 ± 0.32.

Compared with QYSRLESLLM, RAAKF is lower in amyloid nucleation score: 0.483 ± 0.39 for the first, -1.15 ± 0.58 for the second.

RACGYYCKSLCPGCKTCLSR and RAGQVRNNDTSVEFAMCGRW are within error of each other in amyloid nucleation score: 0.005 ± 1.7 for the first, 0.355 ± 0.38 for the second.

Compared with RAIIGFSLSQRGYLPNTDLR, RARLNRFVICVSLDMLVLWM is lower in amyloid nucleation score: 3.1 ± 0.095 for the first, -0.709 ± 0.45 for the second.

RARWDPFLMCYLTVVWTSFV and RASDRSSIMICF are within error of each other in amyloid nucleation score: -0.12 ± 0.29 for the first, 0.382 ± 1.4 for the second.

First: RATQLF
Second: RCGFSLNFC
The amyloid nucleation score of the first is lower: 1.81 ± 0.67 for the first, 3.2 ± 0.097 for the second.

First: RCGLWV
Second: RCGSPSAHNSIYMR
The amyloid nucleation score of the first is lower: -0.217 ± 0.78 for the first, 1.34 ± 0.32 for the second.

RCKFESVKRVS and RCLVFTLKRV are within error of each other in amyloid nucleation score: 1.42 ± 0.54 for the first, 0.358 ± 0.61 for the second.

RCMMPYGESKSGVLMGRYSY and RCYFAWPEWLGYGCVVMERG are within error of each other in amyloid nucleation score: 0.393 ± 0.31 for the first, -0.435 ± 0.52 for the second.

First: RCYKSLVGMNTHKSAAVVER
Second: RCYSVRCTFQVDYARIHANE
The amyloid nucleation score of the first is lower: 0.011 ± 0.27 for the first, 1.99 ± 0.17 for the second.

First: RDDDPYVQDRPLRDFVFKKY
Second: RDPYFRQCTEKQI
The amyloid nucleation score of the first is lower: -0.472 ± 0.35 for the first, 1 ± 0.85 for the second.

Going from RDVCLQSGMVVFYF to RDWKSFSVCVFLIFIACNTG, the amyloid nucleation score falls from 6.905 ± 0.061 to -0.605 ± 0.4.

RECFRQANFCFMGLSTLGKS and REEAVSVGHSRFGFWIVFGG are within error of each other in amyloid nucleation score: -0.88 ± 0.79 for the first, -0.264 ± 0.36 for the second.

Compared with REGNVSYYSFGL, RELNSRPVFYLLGMDQSIGA is higher in amyloid nucleation score: -1.48 ± 1.4 for the first, 4.43 ± 0.14 for the second.

REPIYFSVSMIWGTLASPVT and RERVISVWGL are within error of each other in amyloid nucleation score: -0.447 ± 0.98 for the first, -0.197 ± 0.45 for the second.

RETIPCVEVFTHRSLDFL and REVSMRDGGPVT are within error of each other in amyloid nucleation score: 1.15 ± 0.83 for the first, 0.298 ± 0.54 for the second.

REVSVVNLYRCFDGIRSKLT and REWSSYRIVRWYEMCYISTS are within error of each other in amyloid nucleation score: 0.219 ± 0.23 for the first, -0.158 ± 0.84 for the second.

First: RFARHCSRIS
Second: RFEWLCGVFSGALPKGAWLK
The amyloid nucleation score of the first is higher: 0.769 ± 0.36 for the first, -0.144 ± 0.37 for the second.

RFFGFS and RFFISYTFSWPRYLVGKDLL are within error of each other in amyloid nucleation score: -0.63 ± 1.1 for the first, -0.936 ± 0.34 for the second.

RFFNTRSGKSWPLKYLTEFF and RFFYWG are within error of each other in amyloid nucleation score: 0.042 ± 0.34 for the first, 0.375 ± 1.2 for the second.

Going from RFILPVVGSSHLINSLADSL to RFIWFLVYVNTCYARC, the amyloid nucleation score rises from -0.8 ± 1.4 to 2.86 ± 0.25.

RFIYE and RFLTGCICAQSLRQLTS are within error of each other in amyloid nucleation score: -0.543 ± 0.82 for the first, -0.075 ± 0.48 for the second.

Work on RFMKPTMVWL yielded an amyloid nucleation score of 0.005 ± 1.4.

For PSGCFVWEML, the amyloid nucleation score was “inactive”.
With PSLYACGQKPRSEALDARWL the amyloid nucleation score was “inactive”.
For PVDFNQYVVSGLQDLLHYAG, the amyloid nucleation score was “inactive”.
For QCHVVDFRRKYLELRSSLRY, the amyloid nucleation score was “inactive”.
In the case of QFYKGRNSFNERSSSNVLRY, the amyloid nucleation score is reported as “inactive”.
In the case of QMKVISLVRHE, the amyloid nucleation score is reported as “inactive”.
With QNSENMFDINVLTWGCHMAM the amyloid nucleation score was “inactive”.
For QSWHEWDM, the amyloid nucleation score was “inactive”.
With QVWWDVNEPPDLTPQGSRWG the amyloid nucleation score was “inactive”.
For QWRFKVRVHVEVSSSGVCSI, the amyloid nucleation score was “inactive”.
In the case of RAVRVMRLSSGLSLGRPSDW, the amyloid nucleation score is reported as “inactive”.
With RCTGLRLRVLGAILIFIHYV the amyloid nucleation score was “inactive”.
